From article PMC3836723, “Translation Initiation Factors eIF3 and HCR1 Control Translation Termination and Stop Codon Read-Through in Yeast Cells” (PLoS Genetics, 2013)

How the values were obtained:
TAP-tagged HCR1 = biological target: T1, TAP-tagged HCR1 (yeast, UniProt Q05775 1-265); assay: pull-down; TAP-tagged chromosomal alleles; cells treated with 1% HCHO before harvest; WCE (1 mg protein) in buffer B (50 mM Tris-HCl pH 7.6, 150 mM NaCl, 0.05% Tween 20) with or without 0.1 mg/ml RNase A; IgG Sepharose 6 Fast Flow beads, 2 h at 4°C; eluted by boiling in SDS buffer or by TEV protease; untagged wt strain as control; Western analysis; conditions: partners not purified
T1 construct: eIF3j/HCR1, yeast; chromosomal TAP-tagged allele; also called eIF3j/HCR1; source: chromosomal TAP-tagged allele, yeast strain H553, cells treated with 1% HCHO, in whole cell extract
T1 sequence (Q05775 whole entry): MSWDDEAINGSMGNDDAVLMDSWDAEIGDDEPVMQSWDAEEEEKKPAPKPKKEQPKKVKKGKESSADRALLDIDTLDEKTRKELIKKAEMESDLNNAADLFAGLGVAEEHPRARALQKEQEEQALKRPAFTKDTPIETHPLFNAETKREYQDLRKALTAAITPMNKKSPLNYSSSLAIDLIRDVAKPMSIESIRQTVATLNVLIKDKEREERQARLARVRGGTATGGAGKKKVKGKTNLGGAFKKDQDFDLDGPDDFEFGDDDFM

Myc-tagged RLI1 = biological target: T2, Myc-tagged RLI1 (yeast, UniProt Q03195 1-608); assay: co-IP; WCE of yeast YDH353 (chromosomal Myc-tagged RLI1), 500 µg total protein, 1 µl mouse anti-Myc-Tag IgG, with or without antibody; lysis in buffer A (30 mM HEPES pH 8.8, 20 mM KAc, 3 mM magnesium acetate, 1 mM DTT, 1% Nonidet P-40); Western analysis; conditions: partners not purified
T2 construct: chromosomal Myc-tagged allele; also called ABCE1/RLI1; source: chromosomal Myc-tagged allele, yeast strain YDH353, in whole cell extract

Row | percent of input co-purified (TAP-tagged HCR1) [%] | percent of input co-precipitated (Myc-tagged RLI1) | Binder
1 | ~2 | ~22 % of the input | eukaryotic release factor 1 (eRF1) (natural protein, yeast (endogenous in yeast cells), UniProt P12385 1-437, looked up, eRF1 (SUP45), yeast; also called SUP45; source: endogenous, yeast whole cell extract) MDNEVEKNIEIWKVKKLVQSLEKARGNGTSMISLVIPPKGQIPLYQKMLTDEYGTASNIKSRVNRLSVLSAITSTQQKLKLYNTLPKNGLVLYCGDIITEDGKEKKVTFDIEPYKPINTSLYLCDNKFHTEVLSELLQADDKFGFIVMDGQGTLFGSVSGNTRTVLHKFTVDLPKKHGRGGQSALRFARLREEKRHNYVRKVAEVAVQNFITNDKVNVKGLILAGSADFKTDLAKSELFDPRLACKVISIVDVSYGGENGFNQAIELSAEALANVKYVQEKKLLEAYFDEISQDTGKFCYGIDDTLKALDLGAVEKLIVFENLETIRYTFKDAEDNEVIKFAEPEAKDKSFAIDKATGQEMDVVSEEPLIEWLAANYKNFGATLEFITDKSSEGAQFVTGFGGIGAMLRYKVNFEQLVDESEDEYYDEDEGSDYDFI
2 | 9 ± 0.2 | ~13 % of the input | eukaryotic release factor 3 (eRF3) (natural protein, yeast (endogenous in yeast cells), UniProt P05453 1-685, looked up, eRF3 (SUP35), yeast; also called SUP35; source: endogenous, yeast whole cell extract) MSDSNQGNNQQNYQQYSQNGNQQQGNNRYQGYQAYNAQAQPAGGYYQNYQGYSGYQQGGYQQYNPDAGYQQQYNPQGGYQQYNPQGGYQQQFNPQGGRGNYKNFNYNNNLQGYQAGFQPQSQGMSLNDFQKQQKQAAPKPKKTLKLVSSSGIKLANATKKVGTKPAESDKKEEEKSAETKEPTKEPTKVEEPVKKEEKPVQTEEKTEEKSELPKVEDLKISESTHNTNNANVTSADALIKEQEEEVDDEVVNDMFGGKDHVSLIFMGHVDAGKSTMGGNLLYLTGSVDKRTIEKYEREAKDAGRQGWYLSWVMDTNKEERNDGKTIEVGKAYFETEKRRYTILDAPGHKMYVSEMIGGASQADVGVLVISARKGEYETGFERGGQTREHALLAKTQGVNKMVVVVNKMDDPTVNWSKERYDQCVSNVSNFLRAIGYNIKTDVVFMPVSGYSGANLKDHVDPKECPWYTGPTLLEYLDTMNHVDRHINAPFMLPIAAKMKDLGTIVEGKIESGHIKKGQSTLLMPNKTAVEIQNIYNETENEVDMAMCGEQVKLRIKGVEEEDISPGFVLTSPKNPIKSVTKFVAQIAIVELKSIIAAGFSCVMHVHTAIEEVHIVKLLHKLEKGTNRKSKKPPAFAKKGMKVIAVLETEAPVCVETYQDYPQLGRFTLRDQGTTIAIGKIVKIAE
3 | ~58 | – | ABCE1/RLI1 (natural protein, yeast (endogenous in yeast cells), UniProt Q03195 1-608, looked up, source: endogenous, yeast whole cell extract) MSDKNSRIAIVSADKCKPKKCRQECKRSCPVVKTGKLCIEVTPTSKIAFISEILCIGCGICVKKCPFDAIQIINLPTNLEAHVTHRYSANSFKLHRLPTPRPGQVLGLVGTNGIGKSTALKILAGKQKPNLGRFDDPPEWQEIIKYFRGSELQNYFTKMLEDDIKAIIKPQYVDNIPRAIKGPVQKVGELLKLRMEKSPEDVKRYIKILQLENVLKRDIEKLSGGELQRFAIGMSCVQEADVYMFDEPSSYLDVKQRLNAAQIIRSLLAPTKYVICVEHDLSVLDYLSDFVCIIYGVPSVYGVVTLPASVREGINIFLDGHIPAENLRFRTEALQFRIADATEDLQNDSASRAFSYPSLKKTQGDFVLNVEEGEFSDSEILVMMGENGTGKTTLIKLLAGALKPDEGQDIPKLNVSMKPQKIAPKFPGTVRQLFFKKIRGQFLNPQFQTDVVKPLRIDDIIDQEVQHLSGGELQRVAIVLALGIPADIYLIDEPSAYLDSEQRIICSKVIRRFILHNKKTAFIVEHDFIMATYLADKVIVFEGIPSKNAHARAPESLLTGCNRFLKNLNVTFRRDPNSFRPRINKLDSQMDKEQKSSGNYFFLDNTGI
